# Test results published in patent US20250206820A1 (NGM BIOPHARMACEUTICALS, published 2025).
# Like-named read-outs stand apart in the source and are kept apart here.
# Columns and labels:
# [1] = target: T1, human ILT3 (as used in the affinity measurements) (human, UniProt Q8NHJ6 22-259, limits assumed); test: column 'ILT3 Affinity (nM)'; method and format not stated
# T1 construct: also called immunoglobulin-like transcript 3
# [2] = target: T2, CD3 (as used in the affinity measurements) (human, UniProt P07766 23-126); test: SPR
# T2 construct: the description gives human CD3 as UniProtKB P07766; also called human CD3
# T2 sequence (P07766 23-126): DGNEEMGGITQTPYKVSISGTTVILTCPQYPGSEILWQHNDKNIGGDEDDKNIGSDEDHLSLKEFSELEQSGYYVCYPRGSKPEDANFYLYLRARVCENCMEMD
# [3] = target: T3, ILT3 on target cells (MOLM13, OCI-AML-2, NALM-1, THP-1, MM1S, H929, U226B1 and other lines) (human, UniProt Q8NHJ6 22-448); test: cell-based or functional assay
# [4] = target: T3, ILT3 on target cells (MOLM13, …); test: cell-based or functional assay; remark: listed apart in the source
# [5] = target: T3, ILT3 on target cells (MOLM13, …); test: cell-based or functional assay; remark: listed apart in the source
# [6] = target: T3, ILT3 on target cells (MOLM13, …); test: cell-based or functional assay; remark: listed apart in the source
# [7] = target: T3, ILT3 on target cells (MOLM13, …); test: cell-based or functional assay; remark: listed apart in the source
# [8] = target: T3, ILT3 on target cells (MOLM13, …); test: cell-based or functional assay; remark: listed apart in the source
# [9] = target: T1, human ILT3 (as used in the affinity …); test: comparison of the affinity of Hz45G10 for human ILT3 with that of the CD3 scFv for CD3
binder,measurement,setting,value
"53F10 anti-ILT3 antibody (antibody, V domains shown) VH: EVQVVESGGGLVKPGGSLKLSCAASGFTFSDYGMHWVRQAPEKGLEWVAYISTGIITVYYADTVKGRFTMSRDNAKNTLFLQMTSLRSEDTAIYYCARADGRGAMDYWGQGTSVIVSS VL: DIQMTQTTSSLSASLGDRVTISCRASQDISNFLNWYQQKPDGTVTLLIYYTSRLHSGVPSRFSGSGSGTDYSLTISNLEQEDFATYFCQQGNTLPWTFGGGTKLEIK",Kd,[1],250 pM
"16C5 anti-ILT3 antibody (antibody, V domains shown) VH: EVQLQQSGPELVKPGASVKISCKASGYTFTDYNMDWVKQSHGKSLEWIGYIYPSNGGTGYNQKFKSKATLTVDKSSNTAYMELHSLTSEDSAVYYCARVPYYDYLYYYAMDYWGQGTSVTVSS VL: QIVLSQSPAILSASPGEKVTMACRASSSVSFMHWYQQKPGSSPQPWIYATSNLASGVPARFSGSGSGTSYSLTISRVEAEDAATYYCQQWSTNPYMYTFGGGTKLEIK",Kd,[1],700 pM
"12A12 anti-ILT3 antibody (antibody, V domains shown) VH: EVQLQQSGPELVKPGASVKISCKASGYTFTDYNMDWVKQSHGKSLEWIGYIYPNNGGTGYNQKFNSKATLTVDKSSSTAYMELHSLTSEDSAVYYCASSPYYDYVGSYAMDYWGQGTSVTVSS VL: QIVLTQSPAIMSASLGERVTMTCTASSSVSSSYLHWYQQKPGSSPKLWIYSTSNLASGVPARFSGSGSGTSYSLTISSMEAEDAATYYCHQYHRSPRTFGGGTKLEIK",Kd,[1],8500 pM
"48A6 anti-ILT3 antibody (antibody, V domains shown) VH: EVQLVESGGDLMKPGGSLKLSCAASGFTFSSYGMSWVRQTPDKRLEWVATISSGGTYTFYPDSVKGRFTISRDNAKNTLYLQMSSLKSEDTAMYYCARRGWLLHYYAMDYWGQGTSVTVSS VL: NIVLTQSPASLAVSLGQRATISCRPSESVDSFGNSFMHWFQQKPGQPPKLLIYLSSKLESGVPARFSGSGSRTDFTLTIDPVEADDAATYYCQQHNEDPFTFGSGTKLEIK",Kd,[1],80 pM
"3A3 anti-ILT3 antibody (antibody, V domains shown) VH: QVQLKESGPGLVAPSQSLSITCTVSGFSLTSYGVHWVRQPPGKGLEWLGVIWPGGTINYNSALMSRLSISKDNSKSQVFLKLNSLQTDDTAMYYCASDKYDGGWFAYWGQGTLVTVSA VL: DIVMTQSQKFMSTSVGDRVSITCKASQNVRTAVAWYQQKPGQSPEALIYLASNRHTGVPDRFTGSGSGTDFSLSISNVQSEDLADYFCLQHLNYPLTFGSGTKLEIK",Kd,[1],2000 pM
"anti-CD3 scFv clone (VH as SEQ ID NO: 149, VL as SEQ ID NO: 150) (scFv, also called the CD3 scFv) scFv: EVQLLESGGGLVQPGGSLKLSCAASGFTFNTYAMNWVRQAPGKCLEWVARIRSKYNNYATYYADSVKDRFTISRDDSKNTAYLQMNNLKTEDTAVYYCVRHGNFGNSYVSWFAYWGQGTLVTVSSGGGGSGGGGSGGGGSELVVTQEPSLTVSPGGTVTLTCRSSTGAVTTSNYANWVQQKPGQAPRGLIGGTNKRAPGTPARFSGSLLGGKAALTLSGVQPEDEAEYYCALWYSNLWVFGCGTKLTVL",Kd,[2],6000 pM
"ABX1446, ILT3xCD3 bispecific antibody, format F0 (bispecific antibody, human IgG1, kappa, L234A L235A) EVQLLESGGGLVQPGGSLKLSCAASGFTFNTYAMNWVRQAPGKCLEWVARIRSKYNNYATYYADSVKDRFTISRDDSKNTAYLQMNNLKTEDTAVYYCVRHGNFGNSYVSWFAYWGQGTLVTVSSGGGGSGGGGSGGGGSELVVTQEPSLTVSPGGTVTLTCRSSTGAVTTSNYANWVQQKPGQAPRGLIGGTNKRAPGTPARFSGSLLGGKAALTLSGVQPEDEAEYYCALWYSNLWVFGCGTKLTVLGGGGSDKTHTCPPCPAPEAAGGPSVFLFPPKPKDTLMISRTPEVTCVVVDVSHEDPEVKFNWYVDGVEVHNAKTKPREEQYNSTYRVVSVLTVLHQDWLNGKEYKCKVSNKALPAPIEKTISKAKGQPREPQVYTLPPSREEMTKNQVSLSCAVKGFYPSDIAVEWESNGQPENNYKTTPPVLDSDGSFFLVSKLTVDKSRWQQGNVFSCSVMHEALHNHYTQKSLSLSPGK heavy: EVQLVESGGGLVQPGGSLRLSCAASGFTFSDYGMHWVRQAPGKGLEWVAYIFSGSSTIYYADTVKGRFTISRDNAKNSLYLQMNSLRAEDTAVYYCARADGRGAMDYWGQGTLVTVSSASTKGPSVFPLAPSSKSTSGGTAALGCLVKDYFPEPVTVSWNSGALTSGVHTFPAVLQSSGLYSLSSVVTVPSSSLGTQTYICNVNHKPSNTKVDKKVEPKSCDKTHTCPPCPAPEAAGGPSVFLFPPKPKDTLMISRTPEVTCVVVDVSHEDPEVKFNWYVDGVEVHNAKTKPREEQYNSTYRVVSVLTVLHQDWLNGKEYKCKVSNKALPAPIEKTISKAKGQPREPQVYTLPPSREEMTKNQVSLWCLVKGFYPSDIAVEWESNGQPENNYKTTPPVLDSDGSFFLYSKLTVDKSRWQQGNVFSCSVMHEALHNHYTQKSLSLSPGK light: not shown","TDCC, EC50 (pM), MOLM13 cells, expanded T cells",[3],0.9 pM
same,"PBMC Cytotoxicity, EC50 (pM), MOLM13 cells, naive T cells from PBMCs",[4],46.8 pM
same,"TDCC, EC50 (pM), MOLM13 cells, expanded T cells",[4],10.9 pM
same,"TDCC vs. NALM-1 Cells, EC50 (pM), expanded T cells",[5],5.7 pM
same,"TDCC vs. OCI-AML-2 Cells, EC50 (pM), expanded T cells",[5],13.5 pM
same,"TDCC vs. NKM-1 Cells, EC50 (pM), naive T cells from PBMCs",[6],20.4 pM
same,"TDCC vs. OCI-AML-2 Cells, EC50 (pM), naive T cells from PBMCs",[6],2.5 pM
same,"TDCC, EC50 (pM), MOLM13 cells",[7],11 pM
same,"TDCC, EC50 (pM), H929 cells",[8],18.6 pM
same,"TDCC, EC50 (pM), MM1S cells",[8],18.6 pM
same,"TDCC, EC50 (pM), U226B1 cells",[8],6.5 pM
"ABX1520, ILT3xCD3 bispecific antibody, format F13 (bispecific antibody, human IgG1, kappa, L234A L235A) EVQLLESGGGLVQPGGSLKLSCAASGFTFNTYAMNWVRQAPGKCLEWVARIRSKYNNYATYYADSVKDRFTISRDDSKNTAYLQMNNLKTEDTAVYYCVRHGNFGNSYVSWFAYWGQGTLVTVSSGGGGSGGGGSGGGGSELVVTQEPSLTVSPGGTVTLTCRSSTGAVTTSNYANWVQQKPGQAPRGLIGGTNKRAPGTPARFSGSLLGGKAALTLSGVQPEDEAEYYCALWYSNLWVFGCGTKLTVLGGGGSDKTHTCPPCPAPEAAGGPSVFLFPPKPKDTLMISRTPEVTCVVVDVSHEDPEVKFNWYVDGVEVHNAKTKPREEQYNSTYRVVSVLTVLHQDWLNGKEYKCKVSNKALPAPIEKTISKAKGQPREPQVYTLPPSREEMTKNQVSLSCAVKGFYPSDIAVEWESNGQPENNYKTTPPVLDSDGSFFLVSKLTVDKSRWQQGNVFSCSVMHEALHNHYTQKSLSLSPGK heavy: EVQLVESGGGLVQPGGSLRLSCAASGFTFSDYGMHWVRQAPGKGLEWVAYIFSGSSTIYYADTVKGRFTISRDNAKNSLYLQMNSLRAEDTAVYYCARADGRGAMDYWGQGTLVTVSSASTKGPSVFPLAPSSKSTSGGTAALGCLVKDYFPEPVTVSWNSGALTSGVHTFPAVLQSSGLYSLSSVVTVPSSSLGTQTYICNVNHKPSNTKVDKKVEPKSCGGGGSEVQLVESGGGLVQPGGSLRLSCAASGFTFSDYGMHWVRQAPGKGLEWVAYIFSGSSTIYYADTVKGRFTISRDNAKNSLYLQMNSLRAEDTAVYYCARADGRGAMDYWGQGTLVTVSSASTKGPSVFPLAPSSKSTSGGTAALGCLVKDYFPEPVTVSWNSGALTSGVHTFPAVLQSSGLYSLSSVVTVPSSSLGTQTYICNVNHKPSNTKVDKKVEPKSCDKTHTCPPCPAPEAAGGPSVFLFPPKPKDTLMISRTPEVTCVVVDVSHEDPEVKFNWYVDGVEVHNAKTKPREEQYNSTYRVVSVLTVLHQDWLNGKEYKCKVSNKALPAPIEKTISKAKGQPREPQVYTLPPSREEMTKNQVSLWCLVKGFYPSDIAVEWESNGQPENNYKTTPPVLDSDGSFFLYSKLTVDKSRWQQGNVFSCSVMHEALHNHYTQKSLSLSPGK light: not shown","PBMC Cytotoxicity, EC50 (pM), MOLM13 cells, naive T cells from PBMCs",[4],53.7 pM
same,"TDCC, EC50 (pM), MOLM13 cells, expanded T cells",[4],1.4 pM
same,"TDCC vs. NALM-1 Cells, EC50 (pM), expanded T cells",[5],3.6 pM
same,"TDCC vs. OCI-AML-2 Cells, EC50 (pM), expanded T cells",[5],23.3 pM
same,"TDCC vs. NKM-1 Cells, EC50 (pM), naive T cells from PBMCs",[6],2.6 pM
same,"TDCC vs. OCI-AML-2 Cells, EC50 (pM), naive T cells from PBMCs",[6],2 pM
"Hz45G10 anti-ILT3 antibody (antibody, V domains shown) VH: EVQLVESGGGLVQPGGSLRLSCAASGFTFSDYGMHWVRQAPGKGLEWVAYIFSGSSTIYYADTVKGRFTISRDNAKNSLYLQMNSLRAEDTAVYYCARADGRGAMDYWGQGTLVTVSS VL: DIQMTQSPSSLSASVGDRVTITCRASQDISKFLNWYQQKPGKAPKLLIYYTSRLHSGVPSRFSGSGSGTDFTFTISSLQPEDIATYFCQQGNTLPWTFGGGTKLEIK",Kd,[1],130 pM
same,fold higher affinity than the CD3 scFv (for CD3),[9],38 fold
